T1: spectrin β chain domains 10–14 (human, UniProt P11277 1272-1804)
T1 construct: human erythrocyte β spectrin, UniProt P11277, residues 1272-1804; also called β10–14; source: E. coli Rosetta2(DE3), purified (Talon, Q-Sepharose, Superdex 75 or 200); not shown: His10 or His6 (modified pET16b or pET15b), N-terminal, cleaved
T1 sequence (looked up): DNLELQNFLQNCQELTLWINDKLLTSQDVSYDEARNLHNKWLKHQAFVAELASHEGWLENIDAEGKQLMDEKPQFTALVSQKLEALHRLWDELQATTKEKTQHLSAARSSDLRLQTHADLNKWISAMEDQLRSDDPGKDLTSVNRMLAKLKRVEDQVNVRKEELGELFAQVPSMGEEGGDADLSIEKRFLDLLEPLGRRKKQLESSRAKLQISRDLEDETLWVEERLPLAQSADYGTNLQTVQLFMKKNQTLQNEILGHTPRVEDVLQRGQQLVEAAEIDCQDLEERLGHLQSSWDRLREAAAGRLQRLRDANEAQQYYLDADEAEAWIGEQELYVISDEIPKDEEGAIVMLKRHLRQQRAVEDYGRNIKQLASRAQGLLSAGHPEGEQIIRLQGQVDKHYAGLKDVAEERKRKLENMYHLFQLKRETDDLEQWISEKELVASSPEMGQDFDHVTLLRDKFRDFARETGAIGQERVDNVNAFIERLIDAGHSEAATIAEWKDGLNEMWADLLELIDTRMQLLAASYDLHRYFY

B1: KAHRP 5´-repeat scrambled sequence, Scramble 2 (peptide)
chain: CEKSDDKKESKSKHDGSVKKKSEEKKKDNESSTKSDGKNKKNKKHNEHESKHEHKGEGKKKEHGSNEDHKKKNDNEVKGKHKKSPKKKAETKKNSSHDSDKKEKDSSKKVHNEAK
modifications: 5-carboxyfluorescein (5-FAM) on a single cysteine at the protein N-terminus
notes: amino acid content of the KAHRP 5´ repeat, randomly scrambled; also called scrambled peptide; source: E. coli, recombinant, purified as the KAHRP fragments; not shown: His10, N-terminal, cleaved
B2: KAHRP 5´-repeat scrambled sequence, Scramble 4 (peptide)
chain: CESNKKNGHEKGGKKSESKHKKKDHAEKEPKNKKGAHHDDSDKSKTKHNSESDEKVHKSESKEKSKDKVGNKGKEKKVSNSEKKDKNKKDHSHSKETKEKDEKDKKHKSSNKENK
modifications: 5-carboxyfluorescein (5-FAM) on a single cysteine at the protein N-terminus
notes: as for B1
B3: KAHRP 5´-repeat scrambled sequence, Scramble 1 (peptide)
chain: CGGSDNSEKNKKEHKKEKSAHEKEKDKKAEHKKDKDGSKKSSEKKKNSTKEHESSEHNHSEHKKSDNHKKKKENKEDDSEKEKNKKSDVVSDNKKTHKKGGKKKSKPKGNKSVHD
modifications: 5-carboxyfluorescein (5-FAM) on a single cysteine at the protein N-terminus
notes: as for B1
B4: KAHRP 5´-repeat scrambled sequence, Scramble 3 (peptide)
chain: CHDNKGKKSHDSSGDKKHKNKKSKKKKESPTVDKKEKHEVKKKHKNKKDDVHSEEASKEENKKTEKGKNEKESNAKKSKNSHHDSKKGKEHEGSSKNKDHDKKEKNSDESKKGES
modifications: 5-carboxyfluorescein (5-FAM) on a single cysteine at the protein N-terminus
notes: as for B1

molecular target: T1, spectrin β chain domains 10–14; assay: fluorescence polarisation; titration: 5-FAM-labeled protein at 0.5 or 1 μM titrated with unlabeled protein; 20°C; analysis buffer (20 mM NaH2PO4, 50 mM NaCl, 1 mM DTT pH 7); single site binding model; settings: both partners purified

**Q.** Does B1 bind?
**A.** binds

**Q.** Does B2 bind?
**A.** binds

**Q.** Does B3 bind?
**A.** binds

**Q.** Does B4 bind?
**A.** binds
